We go through four molecules from patent publication US20220153819A1 (Regeneron, published 2022).

The target of test [1] is T1, human complement component 1q (C1q) (human, UniProt P02745 23-245; P02746 28-253; P02747 29-245).
T1 construct: also called hC1q; human C1q (Quidel)
The experiment in a line: SPR (Biacore T200), 37C; bsAb captured via anti-human F(ab')2, hC1q injected.

Test [2] deals with T2, IsdB.6×(His) (Staphylococcus aureus, UniProt A6QG30 41-613). The experiment in a line: SPR (Biacore T200), 37C; bsAb captured, IsdB-6xHis injected.
In test [3] the target is T3, biotinylated human C1q (human, UniProt P02745 23-245; P02746 28-253; P02747 29-245).
T3 construct: also called Bt hC1q; bt-hC1q

In test [4] the target is T2, IsdB.6×(His). The experiment in a line: SPR (Biacore T200), 25C; bsAb captured, IsdB-6xHis injected. (In general: SPR reads the build-up and loss of mass on a sensor chip optically.)
Test [5] concerns the target T3, biotinylated human C1q. The source holds these as a separate data set.
For test [6], the target named is T3, biotinylated human C1q. The source holds these as a separate data set.
The target in test [7] is T2, IsdB.6×(His). Nature of the test: SPR (Biacore 8k), 25C; IsdB-6xHis captured via anti-His, bsAb injected.
The target of test [8] is T1, human complement component 1q (C1q).
Test [9] has the same target. The experiment in a line: SPR (Biacore T200), 25C; bsAb captured via anti-human F(ab')2, hC1q injected.
Test [10] addresses T3, biotinylated human C1q. This is another data set of the same source.
Test [11] has as its target T3, biotinylated human C1q.
Test [12] deals with T4, human GITR on Jurkat/hGITR/hCD20 cells (human, UniProt Q9Y5U5 26-241).
T4 sequence (looked up): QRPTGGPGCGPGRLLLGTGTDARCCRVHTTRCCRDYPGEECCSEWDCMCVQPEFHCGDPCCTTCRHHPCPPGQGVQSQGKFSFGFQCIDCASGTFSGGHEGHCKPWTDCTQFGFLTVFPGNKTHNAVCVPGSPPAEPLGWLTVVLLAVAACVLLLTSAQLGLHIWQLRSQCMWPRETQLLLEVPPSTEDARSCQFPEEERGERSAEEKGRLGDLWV

The target in test [13] is T5, hGITR.mmh (human).
T5 chain: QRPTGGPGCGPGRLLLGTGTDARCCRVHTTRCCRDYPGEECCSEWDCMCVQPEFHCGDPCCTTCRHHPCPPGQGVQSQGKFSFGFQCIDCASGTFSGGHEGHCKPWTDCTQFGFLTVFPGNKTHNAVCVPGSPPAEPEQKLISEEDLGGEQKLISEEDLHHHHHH

Test [14] concerns the target T1, human complement component 1q (C1q).
In test [15] the target is T5, hGITR.mmh.
Test [16] has as its target T1, human complement component 1q (C1q). The source holds these as a separate data set.
The target of test [17] is T3, biotinylated human C1q. The source holds these as a separate data set.
For test [18], the target named is T5, hGITR.mmh.
Test [19] deals with T1, human complement component 1q (C1q). The source holds these as a separate data set.
Test [20] has as its target T6, Protein A of S. aureus (ELISA on S. aureus Newman Δspa as printed) (Staphylococcus aureus).
T6 construct: whole, on cells
The experiment in a line: ELISA, plate coated with S. aureus Newman Δspa, luminescence. For orientation: In an ELISA, binding on a coated surface is turned into a signal by an enzyme label.

“And” between values parts separate entries of the source, which are not always exact repeats. Equal values may be shown once. Read-outs that look alike come from different tables or passages of the source.

T1 sequence (P02745 23-245, chain 1 of 3): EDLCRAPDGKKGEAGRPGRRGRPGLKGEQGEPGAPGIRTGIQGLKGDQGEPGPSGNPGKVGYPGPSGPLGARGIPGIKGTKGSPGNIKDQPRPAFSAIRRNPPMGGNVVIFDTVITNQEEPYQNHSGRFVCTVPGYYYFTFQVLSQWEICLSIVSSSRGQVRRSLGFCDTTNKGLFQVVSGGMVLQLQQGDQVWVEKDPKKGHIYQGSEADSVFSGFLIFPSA
T1 sequence (P02746 28-253, chain 2 of 3): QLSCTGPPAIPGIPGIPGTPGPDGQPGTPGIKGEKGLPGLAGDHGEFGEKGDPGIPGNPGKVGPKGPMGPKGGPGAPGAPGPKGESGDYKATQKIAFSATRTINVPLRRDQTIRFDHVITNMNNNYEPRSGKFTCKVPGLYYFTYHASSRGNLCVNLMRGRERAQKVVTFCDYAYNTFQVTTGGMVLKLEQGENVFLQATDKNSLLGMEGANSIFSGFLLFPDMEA
T1 sequence (P02747 29-245, chain 3 of 3): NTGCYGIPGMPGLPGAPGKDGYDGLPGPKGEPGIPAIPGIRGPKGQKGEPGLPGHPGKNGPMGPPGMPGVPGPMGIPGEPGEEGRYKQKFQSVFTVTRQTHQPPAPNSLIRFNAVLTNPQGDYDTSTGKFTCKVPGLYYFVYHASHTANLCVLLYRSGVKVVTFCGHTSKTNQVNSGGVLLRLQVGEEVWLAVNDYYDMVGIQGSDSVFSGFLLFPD
T3 sequence (P02745 23-245, chain 1 of 3): as the sequence (P02745 23-245, chain 1 of 3) above
T3 sequence (P02746 28-253, chain 2 of 3): as the sequence (P02746 28-253, chain 2 of 3) above
T3 sequence (P02747 29-245, chain 3 of 3): as the sequence (P02747 29-245, chain 3 of 3) above

B1: REGN5067, anti-IsdB x anti-C1q bispecific antibody (bispecific antibody, V domains shown)
VH 1: EVQLVESGGGLVQPGRSLRLSCTTSGFTFDDYAMHWVRQVPGQGLEWVAGLSWNSDTIGYADSVKGRFTISRDNAKNSLYLQMKSLKAEDTALYYCTKDFYHSLNNWNYYYFDYWGQGTLVTVSS
VH 2: EVQLVQSGAEVKKPGESLKIFCKGSGYSFINDWIGWVRQMPGKGLEWMGLIFPGDSDTRYSPVFQGHVTISADQSIDTAYLQWNSLKASDTAIYYCAVLRYWHFAIWGRGTLVTVSS
VL: not shown
Regarding B1, the off-rate constant (koff) in test [1] worked out at 0.0134 s⁻¹; with IsdB.6×(His) [2] it was 0.00052 s⁻¹; in the test with IsdB.6×(His) [4] it was 0.000204 s⁻¹; in the test with biotinylated human C1q [5] it was 0.844 s⁻¹; in the test with IsdB.6×(His) [7] it was 0.000989 s⁻¹; in [9] it was 0.00435 s⁻¹. The dissociation rate constant (koff) with biotinylated human C1q [10] is 0.365 s⁻¹. The association rate constant (kon) in [1] is 6.52e+06 M⁻¹ s⁻¹; with IsdB.6×(His) [2], 156000 M⁻¹ s⁻¹; with IsdB.6×(His) [4], 120000 M⁻¹ s⁻¹; with biotinylated human C1q [5], 224000 M⁻¹ s⁻¹; in the test with IsdB.6×(His) [7], 328000 M⁻¹ s⁻¹; in test [9] it was 5.78e+06 M⁻¹ s⁻¹. Further, the kon with biotinylated human C1q [10] came out at 168000 M⁻¹ s⁻¹. For the same molecule, the t1/2 turned out to be 0.9 min in test [1]; 22.2 min in the test with IsdB.6×(His) [2]; 56.6 min with IsdB.6×(His) [4]; 0.01 min with biotinylated human C1q [5]; 11.7 min with IsdB.6×(His) [7]; 2.7 min in test [9]. Further, the t1/2 with biotinylated human C1q [10] was 0.03 min. The dissociation constant Kd was found to be 3.33 nM with IsdB.6×(His) [2]; 3770 nM with biotinylated human C1q [3]; 1.7 nM with IsdB.6×(His) [4]; 2180 nM in the test with biotinylated human C1q [6]; 3.01 nM in the test with IsdB.6×(His) [7]; 2.05 nM in test [8].

B2: REGN6546, anti-GITR x anti-C1q bispecific antibody (bispecific antibody, V domains shown)
VH 1: QVQLQESGPGLVKPSETLSLTCIVSGGSISGYFWNWIRQPPGKGLEWIGYIYYSGTTIYNPSLKSRFTISLDTSKNQFSLKLTSVTAADTAVYYCARESYNPSPRYFDHWGQGTLVTVSS
VH 2: EVQLVQSGAEVKKPGESLKIFCKGSGYSFINDWIGWVRQMPGKGLEWMGLIFPGDSDTRYSPVFQGHVTISADQSIDTAYLQWNSLKASDTAIYYCAVLRYWHFAIWGRGTLVTVSS
VL: not shown
With B2, the Kd in the test with biotinylated human C1q [11] was 1880 nM; in the test with hGITR.mmh [13], 16 nM; in test [14], 4.63 nM; in the test with hGITR.mmh [15], 7.52 nM and 20.9 nM; in [16], 0.753 nM; with biotinylated human C1q [17], 8540 nM. Besides, binding with hGITR.mmh [18] was put at a Kd of 4.61 nM. For the same molecule, the off-rate constant (koff) worked out at 0.413 s⁻¹ with biotinylated human C1q [11]; 0.019 s⁻¹ in the test with hGITR.mmh [13]; 0.0227 s⁻¹ in test [14]; 0.00409 s⁻¹ in test [16]; 0.687 s⁻¹ in the test with biotinylated human C1q [17]; 0.0031 s⁻¹ with hGITR.mmh [18]. The kon was 220000 M⁻¹ s⁻¹ with biotinylated human C1q [11]; 1.19e+06 M⁻¹ s⁻¹ with hGITR.mmh [13]; 4.9e+06 M⁻¹ s⁻¹ in test [14]; 453000 M⁻¹ s⁻¹ and 543000 M⁻¹ s⁻¹ with hGITR.mmh [15]; 5.43e+06 M⁻¹ s⁻¹ in [16]; 80500 M⁻¹ s⁻¹ with biotinylated human C1q [17]. Moreover, the kon with hGITR.mmh [18] was 673000 M⁻¹ s⁻¹. Further, the EC50 in [12] stood at 23.5 nM.

B3: REGN6545, anti-GITR x anti-C1q bispecific antibody (bispecific antibody, V domains shown)
VH 1: QVQLQESGPGLVKPSETLSLTCIVSGGSISGYFWNWIRQPPGKGLEWIGYIYYSGTTIYNPSLKSRFTISLDTSKNQFSLKLTSVTAADTAVYYCARESYNPSPRYFDHWGQGTLVTVSS
VH 2: EVQLVESGGGVVQPGGSLRLSCAASGFSLDDYAMHWVRQTPGKGLEWVSLISGDGSRTSYADSVKGRFTISRDNSKNSLYLKMNSLRTEDTALYYCTKDPHNSNWFDPWGQGTLVTVSS
VL: not shown
B3: the Kd with biotinylated human C1q [11] was 1860 nM; with hGITR.mmh [13], 7.38 nM; in test [14] it was 1.74 nM; in [16], 0.528 nM; with biotinylated human C1q [17], 3330 nM; in the test with hGITR.mmh [18], 3.3 nM. The koff was found to be 0.449 s⁻¹ in the test with biotinylated human C1q [11]; 0.00795 s⁻¹ with hGITR.mmh [13]; 0.00582 s⁻¹ in [14]; 0.00162 s⁻¹ in [16]; 0.658 s⁻¹ in the test with biotinylated human C1q [17]; 0.00229 s⁻¹ in the test with hGITR.mmh [18]. Further, the kon with biotinylated human C1q [11] is 241000 M⁻¹ s⁻¹; in the test with hGITR.mmh [13], 1.08e+06 M⁻¹ s⁻¹; in [14], 3.34e+06 M⁻¹ s⁻¹; with hGITR.mmh [15], 330000 M⁻¹ s⁻¹ and 274000 M⁻¹ s⁻¹; in [16], 3.07e+06 M⁻¹ s⁻¹; with biotinylated human C1q [17], 198000 M⁻¹ s⁻¹. Besides, the kon with hGITR.mmh [18] came out at 693000 M⁻¹ s⁻¹. Besides, it took 31 nM to reach a half-maximal effect in test [12] (EC50).

B4: REGN5551, anti-Protein A x anti-C1q bispecific antibody (bispecific antibody, V domains shown)
VH 1: EVQLVESGGGLVQPGGSLRLSCAASGFTFTSYDMHWVRQATGKGLEWVSNIDPAGNTFYPGSVKGRFTISRENAKKSLYLQMNSLRAGDTAVYYCARNLGNWGYDHWGQGTLVTVSS
VH 2: EVQLVESGGGVVQPGGSLRLSCAASGFSLDDYAMHWVRQTPGKGLEWVSLISGDGSRTSYADSVKGRFTISRDNSKNSLYLKMNSLRTEDTALYYCTKDPHNSNWFDPWGQGTLVTVSS
VL: not shown
notes: also called bsC1q × Protein A; bs hC1q × protein A
In [19], B4 gave a Kd of 1.36 nM, a koff of 0.00488 s⁻¹ and an on-rate (kon) of 3.06e+06 M⁻¹ s⁻¹. The response in [20] was half-maximal at 0.148 nM (EC50).

The term koff denotes the rate constant with which the complex falls apart. What is called kon is the second-order rate constant of association. A high value points to fast association. One may read the Kd as a measure of binding affinity in units of concentration. In general, EC50 refers to the concentration needed to bring the measured effect to its halfway point. A high value points to a less potent agent.
